Results: patent publication US6001823A, “Treatment or prophylaxis of diseases caused by pilus-forming bacteria” (priority 1995, dated 1999)

Assays:
PapD [1] = target: T1, PapD (Escherichia coli, UniProt P15319); test: ELISA: PapD binding to peptides coated on microtiter wells; design: made in house; species or system E. coli; conditions: peptide coated on microtiter wells, ELISA
T1 sequence (P15319 22-239): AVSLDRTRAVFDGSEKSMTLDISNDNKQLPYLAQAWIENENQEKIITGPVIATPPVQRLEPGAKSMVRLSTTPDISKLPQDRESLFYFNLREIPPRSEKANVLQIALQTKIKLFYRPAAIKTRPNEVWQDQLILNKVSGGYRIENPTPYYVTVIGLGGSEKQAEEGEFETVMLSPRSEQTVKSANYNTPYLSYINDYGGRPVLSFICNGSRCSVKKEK
Experimental: The residues in the peptides were numbered starting with the carboxyl terminal residue as 1, and ending with the amino terminal residue. Peptides were also synthesized which deviated in length (G1'-16'WT, G1'-11'WT, G1'-7'WT) or sequence (G2'-21'amide, G1'-19'SV, G1'-19'NH2) from the wild type PapG carboxyl terminal sequence. Using an enzyme-linked immunosorbent assay (ELISA), we tested the ability of PapD to bind to each peptide coated on wells of microtiter plates:
5 mg/ml stock solutions of peptides in water or 50% acetic acid were diluted to a concentration of 2.5 pmol/50 μl in PBS. 50 μl of the peptide solution was coated overnight onto microtiter wells (Nunc-Immuno Plate Maxisorp) at 4° C. The solutions in the plates were discarded, and the wells were blocked with 200 μl 3% bovine serum albumin (BSA, Sigma) in PBS (120 mM NaCl/2.7 mM KCl/10 mM phosphate buffer salts, pH 7.4) for 2 hours at 25° C. The plates were washed vigorously 3 times with PBS and incubated with 50 μl of the indicated amount of purified PapD (Lindberg et al, 1989). After 3 washes with PBS, the wells were incubated with a 1:500 dilution of anti-PapD rabbit antiserum (Lindberg et al, 1989) in 3% BSA/PBS for 45 min. at 25° C. After 3 washes with PBS, the wells were incubated with a 1:1000 dilution of goat anti-rabbit IgG coupled to alkaline phosphatase (Sigma) in 3% BSA/PBS for 45 min. at 25° C. Following 3 washes with PBS and 3 washes with developing buffer (10 mM diethanolamine pH 9.5, 0,5 mM MgCl2), 50 μl filtered p-nitrophenyl phosphate substrate (Sigma) in developing buffer (10 mg/ml) was added. The absorbance at 405 nm was read after 60 min of incubation in the dark at 25° C.

PapD [2] = target: T1, PapD; test: Soluble inhibition ELISA: peptide inhibition of PapD binding to G1'-19'WT-coated wells; design: made in house; species or system E. coli; conditions: peptide in solution
Experimental: In addition, the ability of water-soluble peptides to inhibit PapD binding to G1'-19'WT-coated wells in a soluble inhibition ELISA were tested, since peptide conformations may have been affected by binding to the plastic microtiter plates:
Microtiter wells were coated overnight at 4° C. with 50 μl of 2,5 pmol/50 μl of the G1'-19'WT peptide. The wells were washed with PBS and blocked with 3% bovine serum albumin (BSA). A 25-fold molar excess of each test peptide was pre-incubated with 100 pmoles PapD for 30 min. and the PapD-peptide solution was then added to the coated wells and incubated at 25° C. for 45 min in the presence of 3% BSA/PBS. The subsequent primary antibody, secondary antibody and developing steps are described above. The ability of the peptides to inhibit binding of PapD to the G1'-19'WT peptide was calculated by dividing the amount of PapD binding in the presence of peptide with the amount of PapD binding in the presence of water. 0% inhibition includes values where binding was greater than that of PapD pre-incubated with H2 O.
The % inhibition represents the percentage of PapD binding in the presence of the peptide compared to in the presence of water and are the average of two experiments performed duplicate: […]

Question: Which “binding of PapD to immobilized peptide” value (PapD [1]) does the source give for “NH2--KPGELSGSMTMVLSFP--COOH (H-KPGELSGSMTMVLSFP-OH) [G1'-16'WT]” here?
Answer: binds

Question: What about the “inhibition of PapD binding to immobilized G1'-19'WT by soluble peptide” value (PapD [2]) of the same substance?
Answer: inhibited binding
